From article PMC5216073, “Architecture and mechanism of the late endosomal Rab7-like Ypt7 guanine nucleotide exchange factor complex Mon1–Ccz1” (Nature Communications, 2017)

T1: CtMon1, full length (Chaetomium thermophilum Mon1) (Chaetomium thermophilum, UniProt G0SGS3 1-665)
T1 construct: Mon1 of Chaetomium thermophilum, NCBI XP_006697030; C-terminal domain printed as aa 486-665; GST cleaved with PreScission protease; source: E. coli Rosetta (DE3), co-expressed with CtCcz1, purified (glutathione column, size exclusion chromatography); not shown: GST, N-terminal, cleaved
T1 sequence (looked up): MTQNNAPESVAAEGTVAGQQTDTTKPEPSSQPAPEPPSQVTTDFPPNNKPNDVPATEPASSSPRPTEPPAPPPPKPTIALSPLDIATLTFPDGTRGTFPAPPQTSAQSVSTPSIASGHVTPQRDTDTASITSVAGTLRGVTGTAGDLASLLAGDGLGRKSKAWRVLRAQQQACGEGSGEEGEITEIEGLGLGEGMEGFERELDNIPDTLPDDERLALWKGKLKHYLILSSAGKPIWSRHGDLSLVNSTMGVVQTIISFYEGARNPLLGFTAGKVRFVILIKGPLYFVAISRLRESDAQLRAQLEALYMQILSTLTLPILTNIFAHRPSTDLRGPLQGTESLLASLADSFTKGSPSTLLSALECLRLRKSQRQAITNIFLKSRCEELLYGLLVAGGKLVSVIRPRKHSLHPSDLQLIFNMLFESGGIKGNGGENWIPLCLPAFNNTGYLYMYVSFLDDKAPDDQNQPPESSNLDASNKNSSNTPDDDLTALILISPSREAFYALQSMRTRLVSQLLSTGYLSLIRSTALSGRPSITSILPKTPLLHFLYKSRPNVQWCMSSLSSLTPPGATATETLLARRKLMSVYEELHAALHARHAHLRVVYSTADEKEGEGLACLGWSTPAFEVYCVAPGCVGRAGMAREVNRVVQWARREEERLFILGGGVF


Assays:
[1] = biological target: CtYpt7 wild type (Chaetomium thermophilum Ypt7) (Chaetomium thermophilum); experiment: cell-based or functional assay
[2] = biological target: the molecule itself; experiment: SEC; gel filtration of the full-length CtMC1 complex, co-expressed in E. coli and purified on a glutathione column by GST-CtMon1, tags cleaved
[3] = biological target: T1, CtMon1, full length (Chaetomium …); experiment: as above; details: both partners purified

Binder	kcat/KM of MC1-stimulated exchange of MANT-GDP for GTP on Ypt7 (fluorescence GEF assay, 0-2.0 μM CtMC1, 25 °C) [1]	stoichiometry N [2]	stoichiometry N [3]
full-length CtMC1 complex (CtMon1-CtCcz1) (complex, Chaetomium thermophilum, Mon1 of Chaetomium thermophilum, NCBI XP_006697030; codon-optimized synthetic gene; Ccz1 of Chaetomium thermophilum, NCBI XP_006695440; The Mon1-Ccz1 heterodimer forms a dimer of heterodimers (two copies of each protein); the rows of m3 with itself mean the association of two heterodimers; also called CtMC1full; Mon1-Ccz1 complex; source: E. coli Rosetta (DE3), co-expressed, purified (glutathione …)) chain 1: MTQNNAPESVAAEGTVAGQQTDTTKPEPSSQPAPEPPSQVTTDFPPNNKPNDVPATEPASSSPRPTEPPAPPPPKPTIALSPLDIATLTFPDGTRGTFPAPPQTSAQSVSTPSIASGHVTPQRDTDTASITSVAGTLRGVTGTAGDLASLLAGDGLGRKSKAWRVLRAQQQACGEGSGEEGEITEIEGLGLGEGMEGFERELDNIPDTLPDDERLALWKGKLKHYLILSSAGKPIWSRHGDLSLVNSTMGVVQTIISFYEGARNPLLGFTAGKVRFVILIKGPLYFVAISRLRESDAQLRAQLEALYMQILSTLTLPILTNIFAHRPSTDLRGPLQGTESLLASLADSFTKGSPSTLLSALECLRLRKSQRQAITNIFLKSRCEELLYGLLVAGGKLVSVIRPRKHSLHPSDLQLIFNMLFESGGIKGNGGENWIPLCLPAFNNTGYLYMYVSFLDDKAPDDQNQPPESSNLDASNKNSSNTPDDDLTALILISPSREAFYALQSMRTRLVSQLLSTGYLSLIRSTALSGRPSITSILPKTPLLHFLYKSRPNVQWCMSSLSSLTPPGATATETLLARRKLMSVYEELHAALHARHAHLRVVYSTADEKEGEGLACLGWSTPAFEVYCVAPGCVGRAGMAREVNRVVQWARREEERLFILGGGVF chain 2: MTTPVSPSPSGIIPAQLGFLAIYNPALGTTDETLEDQIVYYATASTLSQARRRHRRPRRRDRQRAQSVVKDSRPNAAGATGDSEAVAEDKDPVSKEERHERLRQIGLAQGMVEFAKSFSDGEPVDTIDTEKARVILVEVEEGWWILASIDLTRLPLPQIKTPTSSSAPPPAPNLNPLPPEPAYEYSSREVKPPSLLRADLLRAYDLFLLHHGSSLSSLLASQGRAQLVASLTRFWDHFLATWNVLLHGNPACDVFGGIKLAASGELGIGVGEEERGSGEREVLEGLVERVEGLVDVVVGRYGGPPSEKGPEEEQWLGLGGEVGEEDGAVFLGVGALDRKSLRGVVQWMEEVYVWGENAFGVGGSRAARRRRKRGAKESRVLKTGAGKKIPIGTGTGTEGKRGEAATPDMAGTPGSMDKLFSYLTLGYGTSWSLGLSGTSTPSDSDPGSVSKGMVESSESGKPRRDLSTGHFLLGLSECSEEELTSSQANPKAIFVELKPSYQHPSRKIPPEDPQPLGKVGPELPRDHTARLRPVIYVSQPFIYILLFSEITPSPSTWPTLAESLHAQLSPLQKPLLHSTSYRPERPVVETTSSSGTTTQHQIFDLVYDTETLTLQSTIPNIPDPFPYSATTPTGHSTGQQHHQQSIWTRVEALQTHAQILAILSSGRAIPTDPSSFTHLPWEEGERTCKTARGWWIVWTRVVEHSPPDAVSLHHARDDDDNDDDASCSVLGHLRSVSSSHAAGSTSSSSGSGFGLGAIPGLGGLGGWAADGATRLAQGIGIDTRRYVEGLLTSLGR	21000 M⁻¹ s⁻¹	2	–
CtCcz1, full length (Chaetomium thermophilum Ccz1) (natural protein, UniProt G0SD94 1-796, looked up, Ccz1 of Chaetomium thermophilum, NCBI XP_006695440; C-terminus printed as residues 250-796; His6-SUMO cleaved with SUMO protease; source: E. coli Rosetta (DE3), co-expressed with CtMon1, purified (glutathione column, size exclusion chromatography); not shown: His6, N-terminal, cleaved; SUMO, N-terminal, cleaved) MTTPVSPSPSGIIPAQLGFLAIYNPALGTTDETLEDQIVYYATASTLSQARRRHRRPRRRDRQRAQSVVKDSRPNAAGATGDSEAVAEDKDPVSKEERHERLRQIGLAQGMVEFAKSFSDGEPVDTIDTEKARVILVEVEEGWWILASIDLTRLPLPQIKTPTSSSAPPPAPNLNPLPPEPAYEYSSREVKPPSLLRADLLRAYDLFLLHHGSSLSSLLASQGRAQLVASLTRFWDHFLATWNVLLHGNPACDVFGGIKLAASGELGIGVGEEERGSGEREVLEGLVERVEGLVDVVVGRYGGPPSEKGPEEEQWLGLGGEVGEEDGAVFLGVGALDRKSLRGVVQWMEEVYVWGENAFGVGGSRAARRRRKRGAKESRVLKTGAGKKIPIGTGTGTEGKRGEAATPDMAGTPGSMDKLFSYLTLGYGTSWSLGLSGTSTPSDSDPGSVSKGMVESSESGKPRRDLSTGHFLLGLSECSEEELTSSQANPKAIFVELKPSYQHPSRKIPPEDPQPLGKVGPELPRDHTARLRPVIYVSQPFIYILLFSEITPSPSTWPTLAESLHAQLSPLQKPLLHSTSYRPERPVVETTSSSGTTTQHQIFDLVYDTETLTLQSTIPNIPDPFPYSATTPTGHSTGQQHHQQSIWTRVEALQTHAQILAILSSGRAIPTDPSSFTHLPWEEGERTCKTARGWWIVWTRVVEHSPPDAVSLHHARDDDDNDDDASCSVLGHLRSVSSSHAAGSTSSSSGSGFGLGAIPGLGGLGGWAADGATRLAQGIGIDTRRYVEGLLTSLGR	–	–	1
